Biological target: Complement C1q (human, UniProt P02745 23-245; P02746 28-253; P02747 29-245)
Test: ELISA

Complement C1q, sequence (P02745 23-245, chain 1 of 3): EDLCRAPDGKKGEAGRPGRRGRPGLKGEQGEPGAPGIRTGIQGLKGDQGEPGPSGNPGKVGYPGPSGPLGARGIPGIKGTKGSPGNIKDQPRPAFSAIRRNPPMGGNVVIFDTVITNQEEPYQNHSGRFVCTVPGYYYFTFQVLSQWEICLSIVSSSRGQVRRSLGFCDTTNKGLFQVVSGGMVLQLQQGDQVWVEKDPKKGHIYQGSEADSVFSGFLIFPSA
Complement C1q, sequence (P02746 28-253, chain 2 of 3): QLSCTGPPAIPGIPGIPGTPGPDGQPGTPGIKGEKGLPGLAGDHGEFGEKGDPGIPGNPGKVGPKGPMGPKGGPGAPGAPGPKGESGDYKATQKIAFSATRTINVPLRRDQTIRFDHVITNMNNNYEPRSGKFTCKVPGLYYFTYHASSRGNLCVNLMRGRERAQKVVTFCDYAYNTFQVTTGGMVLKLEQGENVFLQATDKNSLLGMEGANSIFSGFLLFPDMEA
Complement C1q, sequence (P02747 29-245, chain 3 of 3): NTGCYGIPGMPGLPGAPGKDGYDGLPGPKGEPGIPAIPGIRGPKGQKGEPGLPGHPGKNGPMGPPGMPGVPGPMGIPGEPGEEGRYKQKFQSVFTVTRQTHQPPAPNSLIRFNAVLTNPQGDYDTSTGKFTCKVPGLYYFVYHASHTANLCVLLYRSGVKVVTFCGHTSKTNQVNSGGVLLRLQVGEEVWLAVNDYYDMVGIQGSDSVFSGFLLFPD

binding result: binds
B1: Recombinant soluble complement receptor 1 (sCR1) (domain or fragment)
chain: not shown
modifications: 125I in the radioligand assays with immobilised MBL; unlabelled elsewhere

From article PMC2213499 (The Journal of Experimental Medicine, 2000)
